The target of assay [1] is T1, human Y2 receptor (human, UniProt P49146 1-381).
T1 sequence (looked up): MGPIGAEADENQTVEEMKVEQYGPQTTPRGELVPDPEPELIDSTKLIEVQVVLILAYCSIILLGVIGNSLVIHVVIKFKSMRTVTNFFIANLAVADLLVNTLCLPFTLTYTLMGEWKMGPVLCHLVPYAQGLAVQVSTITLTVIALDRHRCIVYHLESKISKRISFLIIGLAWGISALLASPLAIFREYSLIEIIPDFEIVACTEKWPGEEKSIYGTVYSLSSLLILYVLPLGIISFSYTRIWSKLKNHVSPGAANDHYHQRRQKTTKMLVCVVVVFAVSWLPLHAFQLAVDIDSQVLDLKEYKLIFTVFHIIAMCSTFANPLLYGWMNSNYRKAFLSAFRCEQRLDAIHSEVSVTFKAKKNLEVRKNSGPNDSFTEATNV
The assay is described as follows: cell-based or functional assay.

For assay [2], the target named is T1, human Y2 receptor. The assay is described as follows: RBA: [125I]-PYY displacement, hY2R/CHO membranes. In outline:
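Bound radioligand was collected by filtration on PEI-treated GF/C filters, washed with Tris/MgCl₂/NaCl/CHAPS buffer pH 7.4, and counted by scintillation; IC₅₀ values were calculated.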

Non-standard residues stand in square brackets, D forms with d. No end group written: not given here. 4Amb = NCc1ccc(C(=O)O)cc1

B1: 4-Aminomethylbenzoyl-[Ala26, Ile28,31, Gly30]-PYY(25-36) (peptide)
peptide: [4Amb]RAYINGITRQRY-NH2
modifications: N-terminus assumed
SMILES: CC[C@H](C)[C@H](NC(=O)CNC(=O)[C@H](CC(N)=O)NC(=O)[C@@H](NC(=O)[C@H](Cc1ccc(O)cc1)NC(=O)[C@H](C)NC(=O)[C@H](CCCNC(=N)N)NC(=O)c1ccc(CN)cc1)[C@@H](C)CC)C(=O)N[C@H](C(=O)N[C@@H](CCCNC(=N)N)C(=O)N[C@@H](CCC(N)=O)C(=O)N[C@@H](CCCNC(=N)N)C(=O)N[C@@H](Cc1ccc(O)cc1)C(N)=O)[C@@H](C)O
notes: also called compound No. 45
For the molecule B1, in the assay with human Y2 receptor [1], the “GBA EC50 Ratio (vs PYY(3-36)), [35S]GTPγS” value (“GBA EC50 Ratio” below) is 12 ratio. Also, the “IC50 Ratio (vs PYY(3-36))” value in the assay with human Y2 receptor [2] worked out at 21 ratio.

B2: 4-Aminomethylbenzoyl-[Ala26, Ile31]-PYY(25-36) (peptide)
peptide: [4Amb]RAYLNLITRQRY-NH2
modifications: N-terminus assumed
SMILES: CC[C@H](C)[C@H](NC(=O)[C@H](CC(C)C)NC(=O)[C@H](CC(N)=O)NC(=O)[C@H](CC(C)C)NC(=O)[C@H](Cc1ccc(O)cc1)NC(=O)[C@H](C)NC(=O)[C@H](CCCNC(=N)N)NC(=O)c1ccc(CN)cc1)C(=O)N[C@H](C(=O)N[C@@H](CCCNC(=N)N)C(=O)N[C@@H](CCC(N)=O)C(=O)N[C@@H](CCCNC(=N)N)C(=O)N[C@@H](Cc1ccc(O)cc1)C(N)=O)[C@@H](C)O
notes: also called compound No. 20
For B2, in the assay with human Y2 receptor [1], the “GBA EC50 Ratio” value was found to be 2 ratio. Moreover, in the assay with human Y2 receptor [2], the “IC50 Ratio (vs PYY(3-36))” value is 2.8 ratio.

B3: 4-Aminomethylbenzoyl-[Ala26, Ile28,31, Tyr30]-PYY(25-36) (peptide)
peptide: [4Amb]RAYINYITRQRY-NH2
modifications: N-terminus assumed
SMILES: CC[C@H](C)[C@H](NC(=O)[C@H](Cc1ccc(O)cc1)NC(=O)[C@H](C)NC(=O)[C@H](CCCNC(=N)N)NC(=O)c1ccc(CN)cc1)C(=O)N[C@@H](CC(N)=O)C(=O)N[C@@H](Cc1ccc(O)cc1)C(=O)N[C@H](C(=O)N[C@H](C(=O)N[C@@H](CCCNC(=N)N)C(=O)N[C@@H](CCC(N)=O)C(=O)N[C@@H](CCCNC(=N)N)C(=O)N[C@@H](Cc1ccc(O)cc1)C(N)=O)[C@@H](C)O)[C@@H](C)CC
notes: also called compound No. 57
With B3, the “GBA EC50 Ratio” value with human Y2 receptor [1] was determined as 1.9 ratio. For the same molecule, the “IC50 Ratio (vs PYY(3-36))” value with human Y2 receptor [2] amounted to 2.8 ratio.

B4: 4-Aminomethylbenzoyl-[Ala26, Phe28, Ile31]-PYY(25-36) (peptide)
peptide: [4Amb]RAYFNLITRQRY-NH2
modifications: N-terminus assumed
SMILES: CC[C@H](C)[C@H](NC(=O)[C@H](CC(C)C)NC(=O)[C@H](CC(N)=O)NC(=O)[C@H](Cc1ccccc1)NC(=O)[C@H](Cc1ccc(O)cc1)NC(=O)[C@H](C)NC(=O)[C@H](CCCNC(=N)N)NC(=O)c1ccc(CN)cc1)C(=O)N[C@H](C(=O)N[C@@H](CCCNC(=N)N)C(=O)N[C@@H](CCC(N)=O)C(=O)N[C@@H](CCCNC(=N)N)C(=O)N[C@@H](Cc1ccc(O)cc1)C(N)=O)[C@@H](C)O
notes: also called compound No. 22
For the molecule B4, the “GBA EC50 Ratio” value with human Y2 receptor [1] is 3.5 ratio. The “IC50 Ratio (vs PYY(3-36))” value with human Y2 receptor [2] was 4.1 ratio.

B5: 4-Aminomethylbenzoyl-[Ala26, Ile28,31, Ser32]-PYY(25-36) (peptide)
peptide: [4Amb]RAYINLISRQRY-NH2
modifications: N-terminus assumed
SMILES: CC[C@H](C)[C@H](NC(=O)[C@H](Cc1ccc(O)cc1)NC(=O)[C@H](C)NC(=O)[C@H](CCCNC(=N)N)NC(=O)c1ccc(CN)cc1)C(=O)N[C@@H](CC(N)=O)C(=O)N[C@@H](CC(C)C)C(=O)N[C@H](C(=O)N[C@@H](CO)C(=O)N[C@@H](CCCNC(=N)N)C(=O)N[C@@H](CCC(N)=O)C(=O)N[C@@H](CCCNC(=N)N)C(=O)N[C@@H](Cc1ccc(O)cc1)C(N)=O)[C@@H](C)CC
notes: also called compound No. 60
For the molecule B5, in the assay with human Y2 receptor [1], the “GBA EC50 Ratio” value amounted to 44 ratio. The “IC50 Ratio (vs PYY(3-36))” value with human Y2 receptor [2] was found to be 180 ratio.

B6: 4-Aminomethylbenzoyl-[Ala26, Ile28,31, Phe36]-PYY(25-36) (peptide)
peptide: [4Amb]RAYINLITRQRF-NH2
modifications: N-terminus assumed
SMILES: CC[C@H](C)[C@H](NC(=O)[C@H](Cc1ccc(O)cc1)NC(=O)[C@H](C)NC(=O)[C@H](CCCNC(=N)N)NC(=O)c1ccc(CN)cc1)C(=O)N[C@@H](CC(N)=O)C(=O)N[C@@H](CC(C)C)C(=O)N[C@H](C(=O)N[C@H](C(=O)N[C@@H](CCCNC(=N)N)C(=O)N[C@@H](CCC(N)=O)C(=O)N[C@@H](CCCNC(=N)N)C(=O)N[C@@H](Cc1ccccc1)C(N)=O)[C@@H](C)O)[C@@H](C)CC
notes: also called compound No. 6
Consider B6, for which, in the assay with human Y2 receptor [1], the “GBA EC50 Ratio” value came out at 5.9 ratio. The “IC50 Ratio (vs PYY(3-36))” value with human Y2 receptor [2] came to 5.1 ratio.

B7: 4-Aminomethylbenzoyl-[Ala26, Ile28,31, Leu32]-PYY(25-36) (peptide)
peptide: [4Amb]RAYINLILRQRY-NH2
modifications: N-terminus assumed
SMILES: CC[C@H](C)[C@H](NC(=O)[C@H](Cc1ccc(O)cc1)NC(=O)[C@H](C)NC(=O)[C@H](CCCNC(=N)N)NC(=O)c1ccc(CN)cc1)C(=O)N[C@@H](CC(N)=O)C(=O)N[C@@H](CC(C)C)C(=O)N[C@H](C(=O)N[C@@H](CC(C)C)C(=O)N[C@@H](CCCNC(=N)N)C(=O)N[C@@H](CCC(N)=O)C(=O)N[C@@H](CCCNC(=N)N)C(=O)N[C@@H](Cc1ccc(O)cc1)C(N)=O)[C@@H](C)CC
notes: also called compound No. 62
As to B7, the “GBA EC50 Ratio” value with human Y2 receptor [1] is 15 ratio. Further, the “IC50 Ratio (vs PYY(3-36))” value in the assay with human Y2 receptor [2] worked out at 18 ratio.

B8: 4-Aminomethylbenzoyl-[Ala26, Trp27, Ile28,31]-PYY(25-36) (peptide)
peptide: [4Amb]RAWINLITRQRY-NH2
modifications: N-terminus assumed
SMILES: CC[C@H](C)[C@H](NC(=O)[C@H](Cc1c[nH]c2ccccc12)NC(=O)[C@H](C)NC(=O)[C@H](CCCNC(=N)N)NC(=O)c1ccc(CN)cc1)C(=O)N[C@@H](CC(N)=O)C(=O)N[C@@H](CC(C)C)C(=O)N[C@H](C(=O)N[C@H](C(=O)N[C@@H](CCCNC(=N)N)C(=O)N[C@@H](CCC(N)=O)C(=O)N[C@@H](CCCNC(=N)N)C(=O)N[C@@H](Cc1ccc(O)cc1)C(N)=O)[C@@H](C)O)[C@@H](C)CC
notes: also called compound No. 51
Take B8: the “GBA EC50 Ratio” value in the assay with human Y2 receptor [1] is 5.3 ratio. Besides, the “IC50 Ratio (vs PYY(3-36))” value with human Y2 receptor [2] is 9.5 ratio.

B9: 4-Aminomethylbenzoyl-[Ala26, Ile28,31, Phe30]-PYY(25-36) (peptide)
peptide: [4Amb]RAYINFITRQRY-NH2
modifications: N-terminus assumed
SMILES: CC[C@H](C)[C@H](NC(=O)[C@H](Cc1ccc(O)cc1)NC(=O)[C@H](C)NC(=O)[C@H](CCCNC(=N)N)NC(=O)c1ccc(CN)cc1)C(=O)N[C@@H](CC(N)=O)C(=O)N[C@@H](Cc1ccccc1)C(=O)N[C@H](C(=O)N[C@H](C(=O)N[C@@H](CCCNC(=N)N)C(=O)N[C@@H](CCC(N)=O)C(=O)N[C@@H](CCCNC(=N)N)C(=O)N[C@@H](Cc1ccc(O)cc1)C(N)=O)[C@@H](C)O)[C@@H](C)CC
notes: also called compound No. 54
For the molecule B9, the “GBA EC50 Ratio” value in the assay with human Y2 receptor [1] is 3.4 ratio. In addition, in the assay with human Y2 receptor [2], the “IC50 Ratio (vs PYY(3-36))” value was 5.7 ratio.

B10: 4-Aminomethylbenzoyl-[Ala26, Ile28, Phe31]-PYY(25-36) (peptide)
peptide: [4Amb]RAYINLFTRQRY-NH2
modifications: N-terminus assumed
SMILES: CC[C@H](C)[C@H](NC(=O)[C@H](Cc1ccc(O)cc1)NC(=O)[C@H](C)NC(=O)[C@H](CCCNC(=N)N)NC(=O)c1ccc(CN)cc1)C(=O)N[C@@H](CC(N)=O)C(=O)N[C@@H](CC(C)C)C(=O)N[C@@H](Cc1ccccc1)C(=O)N[C@H](C(=O)N[C@@H](CCCNC(=N)N)C(=O)N[C@@H](CCC(N)=O)C(=O)N[C@@H](CCCNC(=N)N)C(=O)N[C@@H](Cc1ccc(O)cc1)C(N)=O)[C@@H](C)O
notes: also called compound No. 59
For the molecule B10, in the assay with human Y2 receptor [1], the “GBA EC50 Ratio” value was 6.6 ratio. Moreover, the “IC50 Ratio (vs PYY(3-36))” value in the assay with human Y2 receptor [2] is 16 ratio.

B11: 4-Aminomethylbenzoyl-[Ala26, Trp28, Ile31]-PYY(25-36) (peptide)
peptide: [4Amb]RAYWNLITRQRY-NH2
modifications: N-terminus assumed
SMILES: CC[C@H](C)[C@H](NC(=O)[C@H](CC(C)C)NC(=O)[C@H](CC(N)=O)NC(=O)[C@H](Cc1c[nH]c2ccccc12)NC(=O)[C@H](Cc1ccc(O)cc1)NC(=O)[C@H](C)NC(=O)[C@H](CCCNC(=N)N)NC(=O)c1ccc(CN)cc1)C(=O)N[C@H](C(=O)N[C@@H](CCCNC(=N)N)C(=O)N[C@@H](CCC(N)=O)C(=O)N[C@@H](CCCNC(=N)N)C(=O)N[C@@H](Cc1ccc(O)cc1)C(N)=O)[C@@H](C)O
notes: also called compound No. 23
B11: the “GBA EC50 Ratio” value with human Y2 receptor [1] is 5 ratio. For the same molecule, in the assay with human Y2 receptor [2], the “IC50 Ratio (vs PYY(3-36))” value stood at 3.4 ratio.

B12: 4-Aminomethylbenzoyl-[Gly26, Ile28,31]-PYY(25-36) (peptide)
peptide: [4Amb]RGYINLITRQRY-NH2
modifications: N-terminus assumed
SMILES: CC[C@H](C)[C@H](NC(=O)[C@H](Cc1ccc(O)cc1)NC(=O)CNC(=O)[C@H](CCCNC(=N)N)NC(=O)c1ccc(CN)cc1)C(=O)N[C@@H](CC(N)=O)C(=O)N[C@@H](CC(C)C)C(=O)N[C@H](C(=O)N[C@H](C(=O)N[C@@H](CCCNC(=N)N)C(=O)N[C@@H](CCC(N)=O)C(=O)N[C@@H](CCCNC(=N)N)C(=O)N[C@@H](Cc1ccc(O)cc1)C(N)=O)[C@@H](C)O)[C@@H](C)CC
notes: also called compound No. 50
As for B12, in the assay with human Y2 receptor [1], the “GBA EC50 Ratio” value was found to be 4.6 ratio. In addition, the “IC50 Ratio (vs PYY(3-36))” value in the assay with human Y2 receptor [2] was found to be 7.1 ratio.

B13: 4-Aminomethylbenzoyl-[Arg26, Ile28,31]-PYY(25-36) (peptide)
peptide: [4Amb]RRYINLITRQRY-NH2
modifications: N-terminus assumed
SMILES: CC[C@H](C)[C@H](NC(=O)[C@H](Cc1ccc(O)cc1)NC(=O)[C@H](CCCNC(=N)N)NC(=O)[C@H](CCCNC(=N)N)NC(=O)c1ccc(CN)cc1)C(=O)N[C@@H](CC(N)=O)C(=O)N[C@@H](CC(C)C)C(=O)N[C@H](C(=O)N[C@H](C(=O)N[C@@H](CCCNC(=N)N)C(=O)N[C@@H](CCC(N)=O)C(=O)N[C@@H](CCCNC(=N)N)C(=O)N[C@@H](Cc1ccc(O)cc1)C(N)=O)[C@@H](C)O)[C@@H](C)CC
notes: also called compound No. 18
For B13, in the assay with human Y2 receptor [1], the “GBA EC50 Ratio” value is 3 ratio. In the assay with human Y2 receptor [2], the “IC50 Ratio (vs PYY(3-36))” value was 4 ratio.
